Assay [1] concerns the target dcc_rat Dcc (UniProt Q63155).
Assay [2] concerns the target dcc_rat Dcc (UniProt Q63155). This is another data set of the same source.

Chain of UniProt Q63155 (Q63155 whole entry): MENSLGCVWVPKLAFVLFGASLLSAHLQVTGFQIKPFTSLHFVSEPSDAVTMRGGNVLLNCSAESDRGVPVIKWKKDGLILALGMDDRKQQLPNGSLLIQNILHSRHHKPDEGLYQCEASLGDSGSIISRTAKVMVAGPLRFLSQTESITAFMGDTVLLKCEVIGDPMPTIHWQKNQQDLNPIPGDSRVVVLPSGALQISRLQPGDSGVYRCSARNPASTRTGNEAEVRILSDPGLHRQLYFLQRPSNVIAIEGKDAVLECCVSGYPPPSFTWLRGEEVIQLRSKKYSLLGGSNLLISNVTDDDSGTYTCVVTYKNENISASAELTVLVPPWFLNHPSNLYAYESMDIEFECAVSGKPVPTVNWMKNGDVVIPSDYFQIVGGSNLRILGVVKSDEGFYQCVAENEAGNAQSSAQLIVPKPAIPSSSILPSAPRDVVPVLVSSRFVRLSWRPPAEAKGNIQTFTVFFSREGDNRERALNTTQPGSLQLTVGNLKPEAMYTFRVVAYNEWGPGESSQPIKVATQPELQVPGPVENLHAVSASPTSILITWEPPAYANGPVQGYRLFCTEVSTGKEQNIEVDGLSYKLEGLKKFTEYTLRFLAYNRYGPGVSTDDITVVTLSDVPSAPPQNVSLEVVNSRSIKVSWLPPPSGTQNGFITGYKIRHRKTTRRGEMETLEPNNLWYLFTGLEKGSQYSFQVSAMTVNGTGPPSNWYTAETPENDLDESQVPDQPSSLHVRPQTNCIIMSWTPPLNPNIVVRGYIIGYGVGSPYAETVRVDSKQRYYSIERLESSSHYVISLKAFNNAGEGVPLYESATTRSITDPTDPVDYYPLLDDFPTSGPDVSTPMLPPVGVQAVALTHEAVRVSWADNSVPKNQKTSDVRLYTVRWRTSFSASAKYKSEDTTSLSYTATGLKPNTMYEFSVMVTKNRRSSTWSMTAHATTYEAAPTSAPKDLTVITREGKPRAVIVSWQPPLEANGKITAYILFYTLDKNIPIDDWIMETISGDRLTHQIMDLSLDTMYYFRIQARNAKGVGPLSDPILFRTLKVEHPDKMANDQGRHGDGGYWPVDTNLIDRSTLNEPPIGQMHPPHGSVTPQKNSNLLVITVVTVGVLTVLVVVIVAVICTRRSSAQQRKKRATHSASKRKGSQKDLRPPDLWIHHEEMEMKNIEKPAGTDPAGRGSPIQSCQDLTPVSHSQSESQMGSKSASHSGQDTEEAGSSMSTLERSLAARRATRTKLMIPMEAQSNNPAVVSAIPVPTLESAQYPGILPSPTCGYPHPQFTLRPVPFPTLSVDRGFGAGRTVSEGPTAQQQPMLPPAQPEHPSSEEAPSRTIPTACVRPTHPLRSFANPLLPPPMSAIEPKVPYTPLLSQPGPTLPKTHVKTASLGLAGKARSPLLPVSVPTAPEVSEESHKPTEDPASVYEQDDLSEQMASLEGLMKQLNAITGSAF

In the case of “Unconventional myosin-X (Homo sapiens), Q9HD67 S1718A;H1719A”, in the assay with dcc_rat Dcc [1], the “effect of a mutation on the interaction” value was “disrupting interaction strength”.

Turning to “Unconventional myosin-X (Homo sapiens), Q9HD67 S1718A;H1719A;D1763A;E1769A;K1770A”, in the assay with dcc_rat Dcc [1], the “effect of a mutation on the interaction” value is recorded as “disrupting interaction strength”.

On to “Unconventional myosin-X (Homo sapiens), Q9HD67 I2037E”, for which the “effect of a mutation on the interaction” value with dcc_rat Dcc [2] was “disrupting interaction strength”.
